# Data from PMC3386925.
# Biological target: calcitonin receptor (bovine (endogenous in bovine articular cartilage explants))
substance,measurement,value
salmon calcitonin (peptide),share of CTR-positive cells (immunohistochemistry) in the deep layer of T3-induced explants after four days of co-stimulation with 1 nM and 10 nM sCT,< 43%
